Laboratory results as given in publication PMC4863600.

Target: D. radiodurans DNA gyrase holoenzyme (reconstituted from GyrA::6His and 6His::GyrB) (D. radiodurans) (UniProt Q9RT53)

B1: PprA::6His protein (natural protein)
chain: MLPLAFLICSGHNKGSMARAKAKDQTDGIYAAFDTLMSTAGVDSQIAALAASEADAGTLDAALTQSLQEAQGRWGLGLHHLRHEARLTDDGDIEILTDGRPSARVSEGFGALAQAYAPMQALDERGLSQWAALGEGYRAPGDLPLAQLKVLIEHARDFETDWSAGRGETFQRVWRKGDTLFVEVARPASAEAALSDAAWDVIASIKDRAFQRELMRRSEKDGMLGALLGARHAGAKANLAQLPEAHFTVQAFVQTLSGAAARNAEEYRAALKTAAAALEEYQGVTTRQLSEVLRHGLRES
Work on B1 yielded a decatenation of kDNA by DNA gyrase (4 nM) with increasing concentrations of PprA; ratio of minicircles released with PprA over without PprA of 7 fold.
